Results from patent US20110142868A1 (CHIRALIX B V, published 2011).
Numbered stars: 1 amine (or outer) side, 2 acyl side, 3 side chain; on linkers, the order of the positions; unused ones are H or OH. Square brackets hold non-standard residues; d marks the D form. Ends that are not written are not given here. O(CA) = ornithine chloroamidine, N=C(CCl)NCCC[C@H](N[*:1])C(=O)[*:2]; Orn(fluoroacetimidoyl) = N=C(CF)NCCC[C@H](N)C(=O)O

Columns and labels:
Experiment in all cases: cell-based or functional assay
[1] = target: T1, recombinant human PAD4 (human, UniProt Q9UM07 1-663)
T1 sequence (Q9UM07 whole entry): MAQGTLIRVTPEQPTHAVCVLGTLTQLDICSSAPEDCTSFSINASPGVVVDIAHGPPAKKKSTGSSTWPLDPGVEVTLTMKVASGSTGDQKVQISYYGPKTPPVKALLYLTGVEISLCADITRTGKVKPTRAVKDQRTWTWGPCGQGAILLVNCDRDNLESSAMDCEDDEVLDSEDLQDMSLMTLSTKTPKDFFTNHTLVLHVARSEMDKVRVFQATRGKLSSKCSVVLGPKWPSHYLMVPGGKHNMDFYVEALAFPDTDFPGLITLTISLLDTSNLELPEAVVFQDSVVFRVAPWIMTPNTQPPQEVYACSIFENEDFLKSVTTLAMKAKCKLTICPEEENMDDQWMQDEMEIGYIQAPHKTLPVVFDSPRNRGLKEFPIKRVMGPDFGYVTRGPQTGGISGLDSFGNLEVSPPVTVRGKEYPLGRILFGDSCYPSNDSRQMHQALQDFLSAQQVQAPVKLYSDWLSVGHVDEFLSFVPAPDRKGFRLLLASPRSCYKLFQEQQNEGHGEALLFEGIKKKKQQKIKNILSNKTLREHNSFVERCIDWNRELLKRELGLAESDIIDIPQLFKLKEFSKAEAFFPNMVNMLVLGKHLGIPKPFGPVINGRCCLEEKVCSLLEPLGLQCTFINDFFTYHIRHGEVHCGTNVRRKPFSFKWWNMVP

[2] = target: T2, recombinant human PAD2 (human, UniProt Q9Y2J8 1-665)
T2 sequence (Q9Y2J8 whole entry): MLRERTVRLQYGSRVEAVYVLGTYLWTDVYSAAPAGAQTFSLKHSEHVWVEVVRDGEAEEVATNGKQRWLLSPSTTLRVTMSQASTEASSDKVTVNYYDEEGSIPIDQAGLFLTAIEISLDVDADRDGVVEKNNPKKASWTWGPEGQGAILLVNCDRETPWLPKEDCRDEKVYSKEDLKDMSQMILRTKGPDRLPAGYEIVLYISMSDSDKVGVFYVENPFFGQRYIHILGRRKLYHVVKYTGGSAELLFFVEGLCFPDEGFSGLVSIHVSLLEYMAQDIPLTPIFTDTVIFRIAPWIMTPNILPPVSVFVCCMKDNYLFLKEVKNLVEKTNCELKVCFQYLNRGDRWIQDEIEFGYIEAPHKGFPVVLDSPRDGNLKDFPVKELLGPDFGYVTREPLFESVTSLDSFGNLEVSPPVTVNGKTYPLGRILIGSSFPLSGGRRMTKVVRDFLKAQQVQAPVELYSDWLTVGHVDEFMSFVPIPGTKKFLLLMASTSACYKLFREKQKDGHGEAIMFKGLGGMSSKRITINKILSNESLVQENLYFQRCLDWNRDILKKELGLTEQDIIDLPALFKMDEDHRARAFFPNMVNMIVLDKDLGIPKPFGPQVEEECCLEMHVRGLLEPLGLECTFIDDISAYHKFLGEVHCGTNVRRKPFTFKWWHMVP

[3] = target: T1, recombinant human PAD4; remark: listed apart in the source
[4] = target: T2, recombinant human PAD2; remark: listed apart in the source
[5] = target: T2, recombinant human PAD2; remark: listed apart in the source
[6] = target: T1, recombinant human PAD4; remark: listed apart in the source

Row | Binder | IC50 values (µM), ABAP PAD activity assay, second round [1] | IC50 values (µM), ABAP PAD activity assay, second round [2] | IC50 values (µM), ABAP PAD activity assay [3] | IC50 values (µM), ABAP PAD activity assay [4] | also measured
1 | TD[Orn(fluoroacetimidoyl)]GS [T-D-O(FA)-G-S] | 129 µM | 49 µM | 58 µM | 19 µM | –
2 | GD[Orn(fluoroacetimidoyl)]SG [G-D-O(FA)-S-G] | – | – | 178 µM | 17 µM | –
3 | SS[Orn(fluoroacetimidoyl)]DG [S-S-O(FA)-D-G] | – | – | 177 µM | 14 µM | –
4 | GS[Orn(fluoroacetimidoyl)]DG [G-S-O(FA)-D-G] | – | – | 443 µM | 18 µM | –
5 | TD[O(CA)]GS [T-D-O(CA)-G-S] | – | – | 153 µM | 34 µM | –
6 | GD[O(CA)]SG [G-D-O(CA)-S-G] | – | – | 189 µM | 76 µM | –
7 | SS[O(CA)]DG [S-S-O(CA)-D-G] | – | – | 203 µM | 55 µM | –
8 | GS[O(CA)]DG [G-S-O(CA)-D-G] | – | – | 816 µM | 172 µM | –
9 | GD[O(CA)]GS [G-D-O(CA)-G-S] | 60 µM | 38 µM | – | – | –
10 | YD[O(CA)]GS [Y-D-O(CA)-G-S] | 44 µM | 58 µM | – | – | –
11 | KFD[Orn(fluoroacetimidoyl)]DFI [K F D O(FA) D F I] | 122 µM | 17 µM | – | – | –
12 | KWH[Orn(fluoroacetimidoyl)]DFF [K W H O(FA) D F F] | 161 µM | 16 µM | – | – | –
13 | Ac-KLH[Orn(fluoroacetimidoyl)]EWM-NH2 (SMILES CSCC[C@H](NC(=O)[C@H](Cc1c[nH]c2ccccc12)NC(=O)[C@H](CCC(=O)O)NC(=O)[C@H](CCCNC(=N)CF)NC(=O)[C@H](Cc1c[nH]cn1)NC(=O)[C@H](CC(C)C)NC(=O)[C@H](CCCCN)NC(C)=O)C(N)=O) [0748-17FA] | – | – | – | – | conversion of 0708-30 by PAD2, 10 µM inhibitor (0 µM: 68) [5]: 58%; conversion of 0708-30 by PAD2, 50 µM inhibitor (0 µM: 68) [5]: 35%; conversion of 0708-30 by PAD2, 100 µM inhibitor (0 µM: 68) [5]: 24%; conversion of 0708-30 by PAD4, 10 µM inhibitor (0 µM: 81) [6]: 64%; conversion of 0708-30 by PAD4, 50 µM inhibitor (0 µM: 81) [6]: 32%; conversion of 0708-30 by PAD4, 100 µM inhibitor (0 µM: 81) [6]: 18%
